Experimental data reported in US20240117055A1.

What was measured:
[1] = target: Recombinant Human Axl Protein Axl-tag 5 (human) (UniProt P30530); assay: competition ELISA on immobilized Axl-tag 5; unlabeled antibody 50 ug/mL; competitor Biot-M77-297b81.1.1 (1 ug/mL), whose signal is read
[2] = target: Recombinant Human Axl Protein Axl-tag 5 (human) (UniProt P30530); assay: competition ELISA on immobilized Axl-tag 5; unlabeled antibody 50 ug/mL; competitor Biot-v77-2a37.1 (1 ug/mL)
[3] = target: Recombinant Human Axl Protein Axl-tag 5 (human) (UniProt P30530); assay: competition ELISA on immobilized Axl-tag 5; unlabeled antibody 50 ug/mL; competitor Biot-v77-2a37.1 (1 ug/mL), whose signal is read
[4] = target: Recombinant Human Axl Protein Axl-tag 5 (human) (UniProt P30530); assay: competition ELISA on immobilized Axl-tag 5; unlabeled antibody 50 ug/mL; competitor Biot-M77-297b81.1.1 (1 ug/mL)

Sequence of UniProt P30530 (P30530 26-451): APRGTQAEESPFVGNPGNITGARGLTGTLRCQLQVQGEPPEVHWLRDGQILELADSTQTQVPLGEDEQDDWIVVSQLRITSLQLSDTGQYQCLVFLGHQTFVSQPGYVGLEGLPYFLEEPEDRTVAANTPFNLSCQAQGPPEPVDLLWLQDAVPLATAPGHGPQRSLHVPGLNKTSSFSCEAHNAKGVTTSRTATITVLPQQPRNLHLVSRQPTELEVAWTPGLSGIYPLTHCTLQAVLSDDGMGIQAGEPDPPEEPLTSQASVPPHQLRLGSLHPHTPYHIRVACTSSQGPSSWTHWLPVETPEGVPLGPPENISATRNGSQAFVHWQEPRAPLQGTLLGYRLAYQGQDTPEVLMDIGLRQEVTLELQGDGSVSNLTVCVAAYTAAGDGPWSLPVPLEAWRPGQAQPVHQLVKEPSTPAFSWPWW

OD (650 nm) [1]: 2.13 OD (650 nm)
% competition [2]: 3.3%
OD (650 nm) [3]: 1.81 OD (650 nm)
% competition [4]: 1.5%
Substance: Cell Signaling rabbit monoclonal anti-AXL antibody AXL(C89E7)
